Assay results as given in paper PMC4357730.

Columns and labels:
hTDG-R275A R275A (human) = hTDG-R275A R275A (human) (UniProt Q13569); experiment: AFM; conditions: dUF at insert position 9 opposite G (non-cleavable G:U analog); AFM: 25 mM HEPES pH 7.5, 25 mM Na acetate, 10 mM Mg acetate, RT; 2-AP hTDG: 20 mM HEPES pH 7.0, 0.2 mM EDTA, 2.5 mM MgCl2, 100 mM NaCl, 25 C; 2-AP hOGG1: 50 mM …; scale: specificity S
hTDG-N140A (human) = experiment: AFM; conditions: AFM: 25 mM HEPES pH 7.5, 25 mM Na acetate, 10 mM Mg acetate, RT, 2-AP hTDG: 20 mM HEPES pH 7.0, 0.2 mM EDTA, 2.5 mM MgCl2, 100 mM NaCl, 25 C, 2-AP hOGG1: 50 mM …, scale: specificity S

hTDG-R275A R275A (human), sequence (Q13569 whole entry R275A): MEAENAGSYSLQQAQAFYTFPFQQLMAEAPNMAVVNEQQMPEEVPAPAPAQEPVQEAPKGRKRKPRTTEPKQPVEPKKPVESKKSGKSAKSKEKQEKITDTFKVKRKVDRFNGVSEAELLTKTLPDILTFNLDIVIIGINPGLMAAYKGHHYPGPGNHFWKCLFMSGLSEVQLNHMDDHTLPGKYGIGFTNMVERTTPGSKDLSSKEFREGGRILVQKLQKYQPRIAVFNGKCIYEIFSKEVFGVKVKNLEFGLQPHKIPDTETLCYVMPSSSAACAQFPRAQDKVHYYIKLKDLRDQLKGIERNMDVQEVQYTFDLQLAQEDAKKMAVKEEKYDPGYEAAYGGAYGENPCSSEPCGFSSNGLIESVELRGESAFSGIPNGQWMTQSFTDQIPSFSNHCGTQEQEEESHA

549 bp G:UF DNA was tested, and the binding signal (hTDG-R275A R275A (human)) was 358.
549 bp G:T DNA showed a binding signal (hTDG-N140A (human)) of 305.
With 549 bp G:U DNA the binding signal (hTDG-N140A (human); dU at insert position 9 opposite G) was 163.
